Measured values: paper PMC12102760 (Protein Science : A Publication of the Protein Society, 2025)

Tests used:
[1] = target: T1, EphA2 extracellular domain (ECD) (human, UniProt P29317); test: SPR; EphA2 ECD immobilised by amine coupling on GLC chip, Fabs from 100 nM in three-fold dilutions, PBS, 25°C, 1:1 Langmuir model; conditions: both partners purified
T1 construct: EphA2, human, extracellular domain (LBD, CRD, FN1, FN2); The catalogue number is printed for the SEC and the selections; also called EphA2 ECD; EphA2-His; source: bought: R&D Systems (3035-A2)

[2] = target: the molecule itself; test: crystal structure; Fab^S1CEL1 with EphA2 LBD-CRD, 4.6 Å; 16% PEG 8000, 100 mM CHES pH 9.0, 200 mM magnesium sulfate; one Fab and two LBD-CRD in the asymmetric unit
EphA4-Fc = target: T2, EphA4-Fc (Homo sapiens, UniProt P54764); test: BLI; IgG captured on anti-human biosensors, quenched with Fc; receptor ECD-Fc in solution, three-fold dilutions from 300 nM; PBS, 1% BSA, 0.05% Tween 20; 25°C; 1:1 binding model; conditions: both partners purified
T2 construct: EphA4, human, extracellular domain

EphA2-Fc = target: T3, EphA2-Fc (Homo sapiens, UniProt P29317); test: as above; conditions: both partners purified
T3 construct: EphA2, human, extracellular domain; Eph ECDs used for the phage selections were from R&D; also called EphA2 ECD

EphA8-Fc = target: T4, EphA8-Fc (Homo sapiens, UniProt P29322); test: as above; conditions: both partners purified
T4 construct: EphA8, human, extracellular domain
T4 sequence (P29322 28-542): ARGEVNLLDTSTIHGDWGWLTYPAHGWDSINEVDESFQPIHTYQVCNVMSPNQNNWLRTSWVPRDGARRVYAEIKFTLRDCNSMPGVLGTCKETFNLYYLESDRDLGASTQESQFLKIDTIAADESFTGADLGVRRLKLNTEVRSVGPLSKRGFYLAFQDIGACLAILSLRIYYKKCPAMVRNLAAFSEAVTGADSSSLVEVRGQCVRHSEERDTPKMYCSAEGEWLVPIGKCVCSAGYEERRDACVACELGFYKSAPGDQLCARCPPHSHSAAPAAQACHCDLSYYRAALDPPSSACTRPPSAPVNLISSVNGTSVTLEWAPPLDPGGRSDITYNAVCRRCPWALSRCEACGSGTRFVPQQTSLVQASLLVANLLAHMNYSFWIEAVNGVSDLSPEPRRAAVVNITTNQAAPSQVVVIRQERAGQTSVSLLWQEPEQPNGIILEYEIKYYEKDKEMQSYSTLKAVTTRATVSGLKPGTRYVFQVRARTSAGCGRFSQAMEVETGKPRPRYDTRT

T1 sequence (P29317 24-537): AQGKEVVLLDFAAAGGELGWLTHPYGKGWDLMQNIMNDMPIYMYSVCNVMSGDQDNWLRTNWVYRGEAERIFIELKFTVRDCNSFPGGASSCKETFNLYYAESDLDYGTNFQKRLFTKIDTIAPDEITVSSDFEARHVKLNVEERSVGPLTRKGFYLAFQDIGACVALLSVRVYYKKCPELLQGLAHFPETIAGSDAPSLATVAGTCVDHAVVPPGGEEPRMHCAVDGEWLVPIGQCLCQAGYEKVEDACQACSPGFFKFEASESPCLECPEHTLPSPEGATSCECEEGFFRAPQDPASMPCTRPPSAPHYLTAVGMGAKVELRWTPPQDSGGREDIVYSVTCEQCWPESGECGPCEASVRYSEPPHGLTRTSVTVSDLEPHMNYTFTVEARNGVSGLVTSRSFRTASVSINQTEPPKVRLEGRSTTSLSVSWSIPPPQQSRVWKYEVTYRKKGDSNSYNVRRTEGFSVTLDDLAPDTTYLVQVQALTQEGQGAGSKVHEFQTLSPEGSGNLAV
T3 sequence (P29317 24-537): as above
T2 sequence (P54764 20-547): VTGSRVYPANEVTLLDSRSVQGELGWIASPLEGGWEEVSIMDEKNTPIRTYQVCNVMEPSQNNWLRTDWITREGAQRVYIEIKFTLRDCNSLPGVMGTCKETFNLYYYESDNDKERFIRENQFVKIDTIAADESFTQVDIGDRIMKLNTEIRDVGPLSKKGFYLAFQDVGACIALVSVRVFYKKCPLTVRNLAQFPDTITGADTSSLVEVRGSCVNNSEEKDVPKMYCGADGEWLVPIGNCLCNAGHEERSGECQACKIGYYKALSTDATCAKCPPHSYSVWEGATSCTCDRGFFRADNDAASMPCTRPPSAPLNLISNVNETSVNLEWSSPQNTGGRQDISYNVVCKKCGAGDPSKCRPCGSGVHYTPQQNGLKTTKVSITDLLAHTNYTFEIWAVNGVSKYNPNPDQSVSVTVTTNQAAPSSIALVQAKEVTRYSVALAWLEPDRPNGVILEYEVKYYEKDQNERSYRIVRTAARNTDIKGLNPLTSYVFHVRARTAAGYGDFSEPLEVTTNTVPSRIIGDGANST

B1: Fab C1 (Fab, V domains shown)
VH: EVQLVESGGGLVQPGGSLRLSCAASGFTIYYSSMHWVRQAPGKGLEWVASISSYYGYTYYADSVKGRFTISADTSKNTAYLQMNSLRAEDTAVYYCARYYAMDYWGQGTLVTVSS
VL: DIQMTQSPSSLSASVGDRVTITCRASQSVSSAVAWYQQKPGKAPKLLIYSASSLYSGVPSRFSGSRSGTDFTLTISSLQPEDFATYYCQQYYGYGGYPITFGQGTKVEIK
notes: synthetic Fab from phage library F; The deposited chains carry crystallisation-enhancing framework substitutions that this Fab lacks; source: E. coli BL21, purified (Protein A)
B1 gave a Kd [1] of less than 1 nM.

B2: EphA2 LBD-CRD (residues 23-326) (domain or fragment, human, UniProt P29317 23-326, looked up)
chain: AAQGKEVVLLDFAAAGGELGWLTHPYGKGWDLMQNIMNDMPIYMYSVCNVMSGDQDNWLRTNWVYRGEAERIFIELKFTVRDCNSFPGGASSCKETFNLYYAESDLDYGTNFQKRLFTKIDTIAPDEITVSSDFEARHVKLNVEERSVGPLTRKGFYLAFQDIGACVALLSVRVYYKKCPELLQGLAHFPETIAGSDAPSLATVAGTCVDHAVVPPGGEEPRMHCAVDGEWLVPIGQCLCQAGYEKVEDACQACSPGFFKFEASESPCLECPEHTLPSPEGATSCECEEGFFRAPQDPASMPCT
notes: EphA2, human, LBD-CRD, residues 23-326; A thrombin cleavage site precedes the C-terminal hexahistidine tag; also called LBD-CRD1; LBD-CRD2; source: kifunensine culture, deglycosylated by endoH
B2: binds [2].

B3: IgG L1 (antibody, V domains shown)
VH: EVQLVESGGGLVQPGGSLRLSCAASGFTISSSYIHWVRQAPGKGLEWVASISSYYGSTSYADSVKGRFTISADTSKNTAYLQMNSLRAEDTAVYYCARSHYSVWWGWHSVSYYAAFDYWGQGTLVTVSS
VL: DIQMTQSPSSLSASVGDRVTITCRASQSVSSAVAWYQQKPGKAPKLLIYSASSLYSGVPSRFSGSRSGTDFTLTISSLQPEDFATYYCQQGSAPFTFGQGTKVEIK
notes: full-length IgG constant region not specified; as the light chain of m12; Bivalent full-length IgG; also called L1 IgG; Ab L1; source: mammalian cells, purified; copies: 2 + 2
With B3 the binding result (EphA4-Fc) was “no binding (tested: 300 nM)”, the Kd (EphA2-Fc) was 0.27 nM and the binding result (EphA8-Fc) was “no binding (tested: 300 nM)”.

B4: Fab L1 (Fab, V domains shown)
VH: EVQLVESGGGLVQPGGSLRLSCAASGFTISSSYIHWVRQAPGKGLEWVASISSYYGSTSYADSVKGRFTISADTSKNTAYLQMNSLRAEDTAVYYCARSHYSVWWGWHSVSYYAAFDYWGQGTLVTVSS
VL: DIQMTQSPSSLSASVGDRVTITCRASQSVSSAVAWYQQKPGKAPKLLIYSASSLYSGVPSRFSGSRSGTDFTLTISSLQPEDFATYYCQQGSAPFTFGQGTKVEIK
notes: as for B1
With B4 the Kd [1] was less than 1 nM.

B5: Fab F1 (Fab, V domains shown)
VH: EVQLVESGGGLVQPGGSLRLSCAASGFDSGAYLRHWVRQAPGKGLEWVASIYPSYGYTSYADSVKGRFTISADTSKNTAYLQMNSLRAEDTAVYYCARSAASYYGYWHWYHFSPGMDYWGQGTLVTVSS
VL: DIQMTQSPSSLSASVGDRVTITCRASQSVSSAVAWYQQKPGKAPKLLIYSASDLYSGVPSRFSGSRSGTDFTLTISSLQPEDFATYYCQQYVSGGWLITFGQGTKVEIK
notes: Fab^S1F1 in PDB 8T7F (chains C and G, heavy and light chain); Optimised from the parental Fab F1′ (Enderle et al., 2021); The deposited chains carry framework substitutions that this Fab lacks; source: E. coli BL21, purified (Protein A)
Binder B5 has a Kd [1] of less than 1 nM.
